For series [1], the target named is T1, HrAgo1 (Candidatus Harpocratesius repetitus …, UniProt A0AAT8XUE3 1-817).
T1 sequence: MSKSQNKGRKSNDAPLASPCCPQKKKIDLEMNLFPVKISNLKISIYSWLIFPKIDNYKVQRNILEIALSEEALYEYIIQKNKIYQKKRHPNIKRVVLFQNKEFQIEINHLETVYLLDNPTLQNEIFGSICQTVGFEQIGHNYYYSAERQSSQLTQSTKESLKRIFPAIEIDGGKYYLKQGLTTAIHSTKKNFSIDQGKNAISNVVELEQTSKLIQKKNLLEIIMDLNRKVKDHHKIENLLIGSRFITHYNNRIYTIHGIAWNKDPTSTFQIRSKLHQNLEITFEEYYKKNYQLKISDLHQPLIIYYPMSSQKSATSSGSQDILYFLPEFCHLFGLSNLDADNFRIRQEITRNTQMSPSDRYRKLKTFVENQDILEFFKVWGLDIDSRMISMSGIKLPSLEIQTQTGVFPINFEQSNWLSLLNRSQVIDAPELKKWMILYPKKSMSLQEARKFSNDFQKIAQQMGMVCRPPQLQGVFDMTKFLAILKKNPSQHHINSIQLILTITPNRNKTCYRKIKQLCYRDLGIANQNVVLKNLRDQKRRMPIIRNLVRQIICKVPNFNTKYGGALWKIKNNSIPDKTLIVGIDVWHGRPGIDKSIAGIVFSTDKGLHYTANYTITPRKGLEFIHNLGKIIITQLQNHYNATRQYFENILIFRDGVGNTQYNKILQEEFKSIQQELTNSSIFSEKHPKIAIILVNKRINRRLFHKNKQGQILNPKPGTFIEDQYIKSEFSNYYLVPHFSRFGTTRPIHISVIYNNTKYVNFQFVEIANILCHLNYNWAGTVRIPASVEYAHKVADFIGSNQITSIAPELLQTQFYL
The series can be described thus: single-molecule FRET; 500 mM NaCl; majority dwell > 200 s, plus transient sub-population; smFRET: 50 mM Tris-HCl pH 8.0, 500 mM NaCl (50 mM for EfPiwi), 1 mM Trolox, glucose oxidase/catalase, 22 C; cryo-EM: 5 mM HEPES pH 7.5, 250 mM KCl, 5 mM MgCl2. The note with it: protein: recombinant, tags: His-MBP removed by TEV, label: Cy5 guide, Cy3 target, 3' biotin target.

The target of series [2] is T1, HrAgo1. The series can be described thus: single-molecule FRET; 500 mM NaCl; stable binding, dwell > 200 s; smFRET: 50 mM Tris-HCl pH 8.0, 500 mM NaCl (50 mM for EfPiwi), 1 mM Trolox, glucose oxidase/catalase, 22 C; cryo-EM: 5 mM HEPES pH 7.5, 250 mM KCl, 5 mM MgCl2. Particulars: protein: recombinant; tags: His-MBP removed by TEV; label: Cy5 guide, Cy3 target, 3' biotin target; guide nt 2-16 pair.

In series [3] the target is T1, HrAgo1. Kind of series: cryo-EM structure; 5 mM MgCl2; smFRET: 50 mM Tris-HCl pH 8.0, 500 mM NaCl (50 mM for EfPiwi), 1 mM Trolox, glucose oxidase/catalase, 22 C; cryo-EM: 5 mM HEPES pH 7.5, 250 mM KCl, 5 mM MgCl2. The note with it: protein: recombinant; tags: His-MBP removed by TEV; single strand; only 6 nt modelled.

Positions count from the first letter of the chain named.

B1: guide N6 / target N6 (dsRNA)
RNA 1: UGAGGUAUUUUUUUUUUUUUUU
RNA 2: UUUUUUUUUUUUUUUUUUUCUACCUCUUUUUUUUUUUUUUUUUUUUUUUUUUUUUUU
modifications: guide 5' phosphate; 5-LC-N-U at guide nt 9 and target nt 11
Turning to B1, in the series with HrAgo1 [1] (guide nt 2-7 pair), the binding result is “binds”.

B2: guide N8 / target N8 (dsRNA)
RNA 1: UGAGGUAGUUUUUUUUUUUUUU
RNA 2: B1 RNA 2 with U19A
modifications: guide 5' phosphate; 5-LC-N-U at guide nt 9 and target nt 11
For the molecule B2, the binding result with HrAgo1 [1] (guide nt 2-9 pair) is listed as “binds”.

B3: guide N15 / target N15 (dsRNA)
RNA 1: UGAGGUAGUAGGUUGUUUUUUU
RNA 2: B1 RNA 2 with U12A, U13C, U14A, U15A, U16C, U17C, U19A
modifications: guide 5' phosphate; 5-LC-N-U at guide nt 9 and target nt 11
Regarding B3, the binding result in the series with HrAgo1 [2] is reported as “binds”.
In the case of UGAGGUAGUAGGUUGUAUAGU (ssRNA, 5' phosphate) [let-7a guide RNA (cryo-EM)], the binding result with HrAgo1 [3] is given as “binds”.

Source of the values: publication PMC11217426, “RNA-guided RNA silencing by an Asgard archaeal Argonaute”.
